# Experimental data: article PMC7954794 (2021)
# B1: S. cerevisiae Abp1 (full length; SH3 domain 535-592 mutated) / Hua2 (parent complex)
# chain 1: MALEPIDYTTHSREIDAEYLKIVRGSDPDTTWLIISPNAKKEYEPESTGSSFHDFLQLFDETKVQYGLARVSPPGSDVEKIIIIGWCPDSAPLKTRASFAANFAAVANNLFKGYHVQVTARDEDDLDENELLMKISNAAGARYSIQTSSKQQGKASTPPVKKSFTPSKSPAPVSKKEPVKTPSPAPAAKISSRVNDNNDDDDWNEPELKERDFDQAPLKPNQSSYKPIGKIDLQKVIAEEKAKEDPRLVQKPTAAGSKIDPSSDIANLKNESKLKRDSEFNSFLGTTKPPSMTESSLKNDDDKVIKGFRNEKSPAQLWAERKAKQNSGNAETKAEAPKPEVPEDEPEGEPDVKDLKSKFEGLAASEKEEEEMENKFAPPPKKSEPTIISPKPFSKPQEPVKAEEAEQPKTDYKKIGNPLPGMHIEADNEEEPEENDDDWDDDEDEAAQPPLPSRNVASGAPVQKEEPEQEEIAPSLPSRNSIPAPKQEEAPEQAPEEEIEEEAEEAAPQLPSRSSAAPPPPPRRATPEKKPKENPWATAEYDYDAAEDNELTFVENDKIINIEFVDDDWWLGELEKDGSKGLFPSNYVSLGN
# chain 2: MQQTKFGKMYLDHDSVVEYSEDEIVEADRITLGYKKRLSMIENQMRHLLEDFSLDVQQIEPILADLQKYYDAFLQLLQKRNKSLQCKRSTHQPVPSPMNSQTSTNAKVNLSGKLMKFQLNSVQKFDEENILRILQNKIEFEHYFQIDKGKKQKVLLLAVYQCLNGPTRLHKVLNIEGIIHNNSIRTILGKQVSSSKWTVFLYDVKLVLLAHRQDVPNLETSKMIVRYGDLFPCALYFKDHTAY
# Variants of: B1
# Assay: DHFR protein-fragment complementation in yeast (Abp1-DHFR F[1,2] x partner-DHFR F[3]), deep mutational scanning, second methotrexate selection vs reference; S. cerevisiae, DHFR-PCA selection in liquid with methotrexate at 30 C, two 72 h selections (the score uses the second); reference = the pre-selection culture
row,Variant,screen value
1,chain 1 D544G,"-0.178 DMS score: mean over two replicates of log2(f_test/f_ref + 0.5)/ln 2, minus the synonymous-codon median (not a log2 …"
2,chain 1 D544L,"0.763 DMS score: mean over two replicates of log2(f_test/f_ref + 0.5)/ln 2, minus the synonymous-codon median (not a log2 …"
3,chain 1 D544A,"0.497 DMS score: mean over two replicates of log2(f_test/f_ref + 0.5)/ln 2, minus the synonymous-codon median (not a log2 …"
4,chain 1 E540C,"-1.63 DMS score: mean over two replicates of log2(f_test/f_ref + 0.5)/ln 2, minus the synonymous-codon median (not a log2 …"
5,chain 1 E540V,"-2.31 DMS score: mean over two replicates of log2(f_test/f_ref + 0.5)/ln 2, minus the synonymous-codon median (not a log2 …"
6,chain 1 E540L,"-2.53 DMS score: mean over two replicates of log2(f_test/f_ref + 0.5)/ln 2, minus the synonymous-codon median (not a log2 …"
7,chain 1 D568G,"-2.49 DMS score: mean over two replicates of log2(f_test/f_ref + 0.5)/ln 2, minus the synonymous-codon median (not a log2 …"
8,chain 1 D568F,"-2.94 DMS score: mean over two replicates of log2(f_test/f_ref + 0.5)/ln 2, minus the synonymous-codon median (not a log2 …"
9,chain 1 D568A,"-1.81 DMS score: mean over two replicates of log2(f_test/f_ref + 0.5)/ln 2, minus the synonymous-codon median (not a log2 …"
10,chain 1 D557E,"-0.885 DMS score: mean over two replicates of log2(f_test/f_ref + 0.5)/ln 2, minus the synonymous-codon median (not a log2 …"
11,chain 1 E555I,"0.585 DMS score: mean over two replicates of log2(f_test/f_ref + 0.5)/ln 2, minus the synonymous-codon median (not a log2 …"
12,chain 1 E555N,"-0.276 DMS score: mean over two replicates of log2(f_test/f_ref + 0.5)/ln 2, minus the synonymous-codon median (not a log2 …"
13,chain 1 E555F,"-0.693 DMS score: mean over two replicates of log2(f_test/f_ref + 0.5)/ln 2, minus the synonymous-codon median (not a log2 …"
14,chain 1 E555P,"-0.507 DMS score: mean over two replicates of log2(f_test/f_ref + 0.5)/ln 2, minus the synonymous-codon median (not a log2 …"
15,chain 1 E555Q,"0.0961 DMS score: mean over two replicates of log2(f_test/f_ref + 0.5)/ln 2, minus the synonymous-codon median (not a log2 …"
16,chain 1 D567E,"-1.62 DMS score: mean over two replicates of log2(f_test/f_ref + 0.5)/ln 2, minus the synonymous-codon median (not a log2 …"
17,chain 1 D567N,"-1.8 DMS score: mean over two replicates of log2(f_test/f_ref + 0.5)/ln 2, minus the synonymous-codon median (not a log2 …"
18,chain 1 D567V,"-2.81 DMS score: mean over two replicates of log2(f_test/f_ref + 0.5)/ln 2, minus the synonymous-codon median (not a log2 …"

row,Variant,screen value
1,chain 1 D567G,"-2.86 DMS score: mean over two replicates of log2(f_test/f_ref + 0.5)/ln 2, minus the synonymous-codon median (not a log2 …"
2,chain 1 A545Q,"0.22 DMS score: mean over two replicates of log2(f_test/f_ref + 0.5)/ln 2, minus the synonymous-codon median (not a log2 …"
3,chain 1 A545T,"-0.0243 DMS score: mean over two replicates of log2(f_test/f_ref + 0.5)/ln 2, minus the synonymous-codon median (not a log2 …"
4,chain 1 D566G,"-2.66 DMS score: mean over two replicates of log2(f_test/f_ref + 0.5)/ln 2, minus the synonymous-codon median (not a log2 …"
5,chain 1 D566Q,"-2.94 DMS score: mean over two replicates of log2(f_test/f_ref + 0.5)/ln 2, minus the synonymous-codon median (not a log2 …"
6,chain 1 D566A,"-2.64 DMS score: mean over two replicates of log2(f_test/f_ref + 0.5)/ln 2, minus the synonymous-codon median (not a log2 …"
7,chain 1 D566T,"-2.82 DMS score: mean over two replicates of log2(f_test/f_ref + 0.5)/ln 2, minus the synonymous-codon median (not a log2 …"
8,chain 1 E547L,"-0.584 DMS score: mean over two replicates of log2(f_test/f_ref + 0.5)/ln 2, minus the synonymous-codon median (not a log2 …"
9,chain 1 E547T,"-2.64 DMS score: mean over two replicates of log2(f_test/f_ref + 0.5)/ln 2, minus the synonymous-codon median (not a log2 …"
10,chain 1 E547D,"-0.281 DMS score: mean over two replicates of log2(f_test/f_ref + 0.5)/ln 2, minus the synonymous-codon median (not a log2 …"
11,chain 1 D548A,"0.159 DMS score: mean over two replicates of log2(f_test/f_ref + 0.5)/ln 2, minus the synonymous-codon median (not a log2 …"
12,chain 1 D548I,"-0.724 DMS score: mean over two replicates of log2(f_test/f_ref + 0.5)/ln 2, minus the synonymous-codon median (not a log2 …"
13,chain 1 D548K,"-0.245 DMS score: mean over two replicates of log2(f_test/f_ref + 0.5)/ln 2, minus the synonymous-codon median (not a log2 …"
14,chain 1 D548R,"-1.06 DMS score: mean over two replicates of log2(f_test/f_ref + 0.5)/ln 2, minus the synonymous-codon median (not a log2 …"
15,chain 1 D548E,"-0.357 DMS score: mean over two replicates of log2(f_test/f_ref + 0.5)/ln 2, minus the synonymous-codon median (not a log2 …"
16,chain 1 D548V,"0.053 DMS score: mean over two replicates of log2(f_test/f_ref + 0.5)/ln 2, minus the synonymous-codon median (not a log2 …"
17,chain 1 D548F,"-0.0924 DMS score: mean over two replicates of log2(f_test/f_ref + 0.5)/ln 2, minus the synonymous-codon median (not a log2 …"

# Continued, values first:
row,screen value,Variant
1,"-0.449 DMS score: mean over two replicates of log2(f_test/f_ref + 0.5)/ln 2, minus the synonymous-codon median (not a log2 …",chain 1 W536C
2,"0.0348 DMS score: mean over two replicates of log2(f_test/f_ref + 0.5)/ln 2, minus the synonymous-codon median (not a log2 …",chain 1 W536Y
3,"-0.26 DMS score: mean over two replicates of log2(f_test/f_ref + 0.5)/ln 2, minus the synonymous-codon median (not a log2 …",chain 1 W536M
4,"-0.173 DMS score: mean over two replicates of log2(f_test/f_ref + 0.5)/ln 2, minus the synonymous-codon median (not a log2 …",chain 1 T552A
5,"0.625 DMS score: mean over two replicates of log2(f_test/f_ref + 0.5)/ln 2, minus the synonymous-codon median (not a log2 …",chain 1 E573C
6,"-0.47 DMS score: mean over two replicates of log2(f_test/f_ref + 0.5)/ln 2, minus the synonymous-codon median (not a log2 …",chain 1 E573S
7,"0.735 DMS score: mean over two replicates of log2(f_test/f_ref + 0.5)/ln 2, minus the synonymous-codon median (not a log2 …",chain 1 Y543F
8,"0.254 DMS score: mean over two replicates of log2(f_test/f_ref + 0.5)/ln 2, minus the synonymous-codon median (not a log2 …",chain 1 Y543W
9,"-0.259 DMS score: mean over two replicates of log2(f_test/f_ref + 0.5)/ln 2, minus the synonymous-codon median (not a log2 …",chain 1 T538Q
10,"-0.987 DMS score: mean over two replicates of log2(f_test/f_ref + 0.5)/ln 2, minus the synonymous-codon median (not a log2 …",chain 1 T538A
11,"0.283 DMS score: mean over two replicates of log2(f_test/f_ref + 0.5)/ln 2, minus the synonymous-codon median (not a log2 …",chain 1 T538M
12,"-0.596 DMS score: mean over two replicates of log2(f_test/f_ref + 0.5)/ln 2, minus the synonymous-codon median (not a log2 …",chain 1 T538S
13,"-0.814 DMS score: mean over two replicates of log2(f_test/f_ref + 0.5)/ln 2, minus the synonymous-codon median (not a log2 …",chain 1 K576Q
14,"-0.96 DMS score: mean over two replicates of log2(f_test/f_ref + 0.5)/ln 2, minus the synonymous-codon median (not a log2 …",chain 1 K576G
15,"-0.301 DMS score: mean over two replicates of log2(f_test/f_ref + 0.5)/ln 2, minus the synonymous-codon median (not a log2 …",chain 1 K576H
16,"2.13 DMS score: mean over two replicates of log2(f_test/f_ref + 0.5)/ln 2, minus the synonymous-codon median (not a log2 …",chain 1 N549A
17,"1.33 DMS score: mean over two replicates of log2(f_test/f_ref + 0.5)/ln 2, minus the synonymous-codon median (not a log2 …",chain 1 N549G
18,"-1.02 DMS score: mean over two replicates of log2(f_test/f_ref + 0.5)/ln 2, minus the synonymous-codon median (not a log2 …",chain 1 N549R
19,"0.106 DMS score: mean over two replicates of log2(f_test/f_ref + 0.5)/ln 2, minus the synonymous-codon median (not a log2 …",chain 1 N549H
20,"1.15 DMS score: mean over two replicates of log2(f_test/f_ref + 0.5)/ln 2, minus the synonymous-codon median (not a log2 …",chain 1 N549Q

row,screen value,Variant
1,"-1.27 DMS score: mean over two replicates of log2(f_test/f_ref + 0.5)/ln 2, minus the synonymous-codon median (not a log2 …",chain 1 N549Y
2,"0.186 DMS score: mean over two replicates of log2(f_test/f_ref + 0.5)/ln 2, minus the synonymous-codon median (not a log2 …",chain 1 K558T
3,"-0.847 DMS score: mean over two replicates of log2(f_test/f_ref + 0.5)/ln 2, minus the synonymous-codon median (not a log2 …",chain 1 K558S
4,"-0.507 DMS score: mean over two replicates of log2(f_test/f_ref + 0.5)/ln 2, minus the synonymous-codon median (not a log2 …",chain 1 K558C
5,"0.165 DMS score: mean over two replicates of log2(f_test/f_ref + 0.5)/ln 2, minus the synonymous-codon median (not a log2 …",chain 1 K580T
6,"0.457 DMS score: mean over two replicates of log2(f_test/f_ref + 0.5)/ln 2, minus the synonymous-codon median (not a log2 …",chain 1 K580R
7,"-0.129 DMS score: mean over two replicates of log2(f_test/f_ref + 0.5)/ln 2, minus the synonymous-codon median (not a log2 …",chain 1 K580H
8,"-0.907 DMS score: mean over two replicates of log2(f_test/f_ref + 0.5)/ln 2, minus the synonymous-codon median (not a log2 …",chain 1 K580L
9,"-2.81 DMS score: mean over two replicates of log2(f_test/f_ref + 0.5)/ln 2, minus the synonymous-codon median (not a log2 …",chain 1 Y587R
10,"-1.17 DMS score: mean over two replicates of log2(f_test/f_ref + 0.5)/ln 2, minus the synonymous-codon median (not a log2 …",chain 1 Y587V
11,"-0.535 DMS score: mean over two replicates of log2(f_test/f_ref + 0.5)/ln 2, minus the synonymous-codon median (not a log2 …",chain 1 G578R
12,"-0.153 DMS score: mean over two replicates of log2(f_test/f_ref + 0.5)/ln 2, minus the synonymous-codon median (not a log2 …",chain 1 G578Q
13,"0.0179 DMS score: mean over two replicates of log2(f_test/f_ref + 0.5)/ln 2, minus the synonymous-codon median (not a log2 …",chain 1 S579Q
14,"0.286 DMS score: mean over two replicates of log2(f_test/f_ref + 0.5)/ln 2, minus the synonymous-codon median (not a log2 …",chain 1 S579R
15,"0.0703 DMS score: mean over two replicates of log2(f_test/f_ref + 0.5)/ln 2, minus the synonymous-codon median (not a log2 …",chain 1 P535R
16,"1.11 DMS score: mean over two replicates of log2(f_test/f_ref + 0.5)/ln 2, minus the synonymous-codon median (not a log2 …",chain 1 P535Q
17,"1.02 DMS score: mean over two replicates of log2(f_test/f_ref + 0.5)/ln 2, minus the synonymous-codon median (not a log2 …",chain 1 P535M
18,"0.473 DMS score: mean over two replicates of log2(f_test/f_ref + 0.5)/ln 2, minus the synonymous-codon median (not a log2 …",chain 1 P535D
19,"1.51 DMS score: mean over two replicates of log2(f_test/f_ref + 0.5)/ln 2, minus the synonymous-codon median (not a log2 …",chain 1 P535V
20,"-0.124 DMS score: mean over two replicates of log2(f_test/f_ref + 0.5)/ln 2, minus the synonymous-codon median (not a log2 …",chain 1 P535H
